{
  "source": "paper PMC10175506",
  "about": "“Cryo-electron microscopy of the f1 filamentous phage reveals insights into viral infection and assembly” (Nature Communications, 2023)",
  "binders": {"B1": {"name": "pIX, minor capsid protein of f1 phage (natural protein, UniProt P69537 1-32, looked up)", "chain": "MSVLVYSFASFVLGWCLRSGITYFTRLMETSS", "notes": "Five copies stand in the round tip of the nanorod; source: expressed from helper plasmid pHP1YM in double-transformed host cells, assembled into f1-derived nanorods; nanorods purified from the supernatant (PEG, CsCl density gradient, anion exchange)"}, "B2": {"name": "pVII, minor capsid protein of f1 phage (natural protein, UniProt P69534 1-33, looked up)", "chain": "MEQVADFDTIYQAMIQISVVLCFALGIIAGGQR", "notes": "the five N-terminal residues (MEQVA) are not visible in the map; Arg 33 is the C-terminal residue; Five copies stand in the round tip of the nanorod; source: expressed from helper plasmid pHP1YM in double-transformed host cells, assembled into f1-derived nanorods; nanorods purified from the supernatant (PEG, CsCl density gradient, anion exchange)"}, "B3": {"name": "pVI, minor capsid protein of f1 phage (natural protein, UniProt P69531 1-112, looked up)", "chain": "MPVLLGIPLLLRFLGFLLVTLFGYLLTFLKKGFGKIAIAISLFLALIIGLNSILVGYLSDISAQLPSDFVQGVQLILPSNALPCFYVILSVKAAIFIFDVKQKIVSYLDWDK", "notes": "density observed for the entire protein; Five copies stand in the pointy tip of the nanorod; source: expressed from helper plasmid pHP1YM in double-transformed host cells, assembled into f1-derived nanorods; nanorods purified from the supernatant (PEG, CsCl density gradient, anion exchange)"}},
  "key": {"[1]": {"molecular_target": "B2", "assay": "cryo-EM structure; purified f1-derived nanorods (529-nt ssDNA) plunge-frozen; map of the round tip, 5-fold symmetry applied, 2.8 Å", "conditions": "both partners purified"}, "[2]": {"molecular_target": "the molecule itself", "assay": "cryo-EM structure; purified f1-derived nanorods (529-nt ssDNA) plunge-frozen; map of the round tip, 5-fold symmetry applied, 2.8 Å"}, "[3]": {"molecular_target": "the molecule itself", "assay": "cryo-EM structure; purified f1-derived nanorods (529-nt ssDNA) plunge-frozen; map of the pointy tip, 5-fold symmetry applied, 2.9 Å"}},
  "data": [
    {"binder": "B1", "values": [
      {"measurement": "binding result", "setting": "[1]", "value": "binds"}
    ]},
    {"binder": "B2", "values": [
      {"measurement": "stoichiometry N", "setting": "[2]", "value": 5}
    ]},
    {"binder": "B3", "values": [
      {"measurement": "stoichiometry N", "setting": "[3]", "value": 5}
    ]}
  ]
}
